The target of the series is poly(ADP-ribosyl)ated GST-Sp1-8xHis (UniProt P08047). In words: EMSA. The note with it: after PARP-1 + 200 uM NAD+ + nicked DNA; approximately 71% reduction; EMSA in buffer D (5 mM HEPES, 10% glycerol, 0.05 mM EDTA, 0.125 mM PMSF), 25 ng poly(dI-dC) (omitted for recombinant Sp1), room temperature 5 min; pH not ….
Chain of UniProt P08047 (P08047 whole entry): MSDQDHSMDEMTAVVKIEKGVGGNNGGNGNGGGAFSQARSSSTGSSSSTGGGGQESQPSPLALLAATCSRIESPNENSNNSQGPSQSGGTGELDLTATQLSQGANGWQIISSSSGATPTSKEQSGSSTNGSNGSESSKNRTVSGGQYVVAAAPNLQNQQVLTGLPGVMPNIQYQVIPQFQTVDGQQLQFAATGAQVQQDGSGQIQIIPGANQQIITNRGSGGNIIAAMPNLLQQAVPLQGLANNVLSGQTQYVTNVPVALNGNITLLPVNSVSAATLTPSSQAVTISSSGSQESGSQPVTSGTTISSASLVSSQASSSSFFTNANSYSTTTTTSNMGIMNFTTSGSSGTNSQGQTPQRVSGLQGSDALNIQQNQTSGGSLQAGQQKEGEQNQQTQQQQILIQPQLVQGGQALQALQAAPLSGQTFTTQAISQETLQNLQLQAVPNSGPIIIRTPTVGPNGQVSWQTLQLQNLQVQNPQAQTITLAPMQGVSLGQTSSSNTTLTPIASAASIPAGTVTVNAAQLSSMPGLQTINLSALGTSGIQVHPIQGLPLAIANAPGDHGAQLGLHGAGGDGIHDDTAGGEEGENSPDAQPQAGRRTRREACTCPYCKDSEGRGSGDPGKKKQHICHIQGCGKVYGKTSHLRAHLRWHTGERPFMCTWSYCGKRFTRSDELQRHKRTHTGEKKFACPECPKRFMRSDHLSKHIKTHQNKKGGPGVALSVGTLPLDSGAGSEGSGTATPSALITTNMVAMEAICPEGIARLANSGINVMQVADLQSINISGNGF

As to “GATCATATCTGCGGGGCGGGGCAGACACAG (double strand) [Sp1 oligonucleotide]”, the binding signal (% of unmodified Sp1) stood at 29.

The values are drawn from publication PMC2175517.
